According to publication PMC9573943, “Contribution of the 12–17 hydrophobic region of islet amyloid polypeptide in self-assembly and cytotoxicity” (Frontiers in Molecular Biosciences, 2022):
“Also recorded” adds a separate entry of the source. Bridge positions count the residues as written; N and C are the ends. Ends that are not written are not given here.

Key:
[1] = cited from earlier work
Excerpt: Countless studies have highlighted the key contributions of the 20–29 domain for IAPP self-assembly, often referred to as the amyloidogenic core ([Glenner et al., 1988]). The fact that the sequence from rodent IAPP (rIAPP) includes three β-breaker prolines within the 20-29 region, and is non-amyloidogenic and poorly toxic, further highlights the critical role of this segment ([Moriarty and Raleigh, 1999]; [Tomasello et al., 2014]).

[2] = Kinetics of amyloid formation monitored by ThT fluorescence; type: physicochemical; conditions: 40 μM ThT, 20 mM Tris-HCl pH 7.4, 25°C, no agitation
Method: Aggregation mixtures were prepared by dissolving the lyophilized peptide at a concentration of 50 μM in 20 mM Tris-HCl, pH 7.4. Assays were performed at 25°C without stirring in sealed black-wall clear-bottom 96-well nonbinding surface plates with 100 μL/well. Final peptide concentrations were 12.5 and 25 μM, and thioflavin T (ThT) concentration was fixed at 40 μM. Fluorescence was measured every 10 min (excitation: 440 nm, emission: 485 nm) and data from triplicate wells were averaged, corrected by subtracting the blank control, and plotted as ThT fluorescence vs. time. Data were normalized with maximum ThT fluorescence intensity obtained for unmodified IAPP. Data were fitted to a sigmoidal Boltzmann model: Y=Yo+(Ymax−Yo)/1+e^−(T−T50)/ K where T 50 is the time required to reach half of the maximum fluorescence intensity, k is the apparent first-order constant, and Y max and Y 0 are the maximum and initial ThT fluorescence values. Lag time corresponds to T50 - 2/k. Data of at least six assays performed with different peptide lots were averaged and expressed as the mean ± S.D. Statistical analysis was performed using Student’s t test, and statistically significant difference between IAPP and analogs was established at (*) p < 0.05; (**) p < 0.005; (***) p < 0.0005.

[3] = Peptide self-assembly under fully quiescent conditions (CD, ThT and ANS fluorescence, TEM, AFM); type: physicochemical; conditions: 50 μM peptide; for Assemblies observed by TEM after 48 h incubation / Overall effect of the substitution on amyloid formation, in words: 20 mM Tris-HCl pH 7.4, quiescent; for Assemblies observed by TEM after 48 h incubation: negative stain TEM; for Overall effect of the substitution on amyloid formation, in words: CD, ThT, ANS, TEM, compared with unmodified IAPP
Method: (§1) Solutions were prepared by dissolving the peptide at a concentration of 50 μM in 20 mM Tris-HCl, pH 7.4, and were incubated at room temperature without agitation in 1.5 ml Eppendorf microtubes. For IAPP12-17, the lyophilized peptide was dissolved in 20 mM acetate pH 6.5 in the presence of 3% DMSO, or HFIP, at a final concentration of 500 μM and the peptide solution was incubated at 37 °C under constant rotational agitation.
(§2) At the indicating time of incubation, peptide solutions were diluted to 25 μM in presence of 40 μM ThT, or 25 μM 8-anilino-1-naphthalenesulfonic acid (ANS). Fluorescence was measured in 10-mm pathlength microcells using a PTI QuantaMaster spectrofluorometer. For ThT, excitation was set at 440 nm, and the emission spectrum from 450 to 550 nm was recorded. For ANS, the excitation was set at 355 nm, and the emission scan was recorded from 385 to 585 nm.
(§3) After incubation, peptide solutions were diluted in water to 25 μM and incorporated into a 2-mm path length quartz cell. For IAPP12-17, the solution was diluted to 150 μM. Far-UV CD spectra were recorded from 190 to 260 nm using a Jasco J-815 CD spectropolarimeter at 25°C. The wavelength step was set at 0.5 nm with an average time of 10 s per scan at each wavelength. Spectra were background-subtracted with buffer solution. Raw data were converted to mean residue ellipticity (MRE): MRE=Mean residue weight (g/mol)X CD signal (deg)/10 X pathlength (cm) X peptide concentration (g/mL)
(§4) After incubation, peptide solutions were diluted to 10 μM, or 100 μΜ for IAPP12-17, before being applied on glow-discharged carbon films on 300-mesh copper grids. Samples were adsorbed and negatively stained with 1.5% uranyl formate for 45 s. Images were recorded using a FEI Tecnai G2 Spirit Twin microscope operating at 120 kV and equipped with a Gatan Ultrascan scan 4,000 4k × 4k CCD camera system.
After incubation, peptide solutions were diluted in 1% acetic acid to a concentration of 7.5 μΜ. […] Images were recorded using Veeco/Bruker multimode AFM instrument using ScanAsyst-air mode with a silicon tip (2–12 nm tip radius, 0.4 N/m force) on a nitride lever. Images were taken at 0.977 Hz and 512 scan/min.

[4] = Lipid membrane leakage (calcein-loaded LUVs); conditions: 25 μM peptide, 500 μM phospholipids, LUVs DOPC:DOPG 9:1, 20 mM Tris-HCl, 150 mM NaCl, pH 7.4, read every 10 min over 24 h; IAPP value reached after 10 h; at least four assays
Method: Large unilamellar vesicles (LUVs) were assembled from 1,2-Dioleoyl-sn-glycero-3-phosphocholine (DOPC) and 2-dioleoyl-sn-glycero-3-phospho-(1′-rac-glycerol) (DOPG) at a 9:1 M ratio (DOPC:DOPG). Lipids were solubilized in 100% chloroform, which was then evaporated. […] The lipid mixture was freeze-thawed five times before being extruded through a 100 nm membrane for 20 cycles. Nonencapsulated calcein was removed by gel filtration using a Sephadex G25 fine resin and 20 mM Tris-HCl, 150 mM NaCl, pH 7.4, as elution buffer. Final lipid concentration was determined by a colorimetric assay ([Babych et al., 2021]). Lyophilized peptides were solubilized in 20 mM Tris-HCl, 150 mM NaCl, pH 7.4, at 50 μM prior to dilution into calcein-LUVs, to reach 25 μM peptide and 500 μM phospholipids. Fluorescence was monitored in sealed black-wall, clear-bottom 96-well non-binding surface plates with 100 μL/well. […] 100% leakage (Fmax) was determined with 0.2% Triton X-100 and LUV leakage was reported using:
Membrane leakage (%) = (F−F baseline)/(F max−F baseline)
Data of at least four assays with different peptide lots were averaged and expressed as the mean ± S.D. Statistical analysis was performed using Student’s t test, and statistically significant difference was established at (*) p < 0.05; (**) p < 0.005; (***) p < 0.0005.

INS-1E cells [5] = assay: Cell viability by resazurin reduction; type: cell-based, Rat; conditions: freshly dissolved peptide up to 50 μM, 24 h, at least five assays
Method: (§5) Rat INS-1E cells were cultured in treated black-wall clear-bottom 96-well plates at a density of 25,000 cell/well in RPMI-1640 medium supplemented with 10% FBS, 2 mM L-glutamine, 100 U/ml penicillin, 100 μg/ml streptomycin, 10 mM HEPES, 1 mM sodium pyruvate and 50 μM β-mercaptoethanol. After 48 h of incubation at 37°C in 5% CO2, cells were treated with 50 μL of peptide freshly dissolved in 20 mM Tris-HCl, pH 7.4. […] Cell viability (%) was calculated from the ratio of the fluorescence of the treated cells to the vehicle-treated cells. Data of at least five assays performed with different peptide lots were averaged and expressed as the mean ± S.D. Statistical analysis was performed using Student’s t test, and statistically significant difference was established at (*) p < 0.05; (**) p < 0.005; (***) p < 0.0005. For Live/Dead viability assay, cells were plated in 12-well plates at density of 250,000 cell/well for 48 h before treatment with 25 μM peptide.

INS-1E cells [6] = assay: Live/Dead viability assay (calcein-AM / ethidium homodimer-1, fluorescence microscopy); type: cell-based, Rat; conditions: 25 μM freshly solubilized peptide, 24 h, calcein-AM (green, live) and ethidium homodimer-1 (red, dead)
Method: as §5

[7] = TFE titration by far-UV CD spectroscopy (helical folding); type: physicochemical; conditions: ellipticity at 222 nm, Tris-HCl 20 mM, TFE titration (0 to 30% TFE)
Method: as §3

[8] = Solubility and self-assembly of the IAPP12-17 fragment (CD, ThT, ANS, TEM); type: physicochemical
Method: as §1, §2, §3, §4

[9] = 20 mM Tris-HCl pH 7.4, room temperature, no agitation

| Substance | Assemblies observed by TEM after 48 h incubation [3] | Overall effect of the substitution on amyloid formation, in words [3] | Cytotoxicity compared with unmodified IAPP, in words (INS-1E cells [5]) | TFE-induced helical folding compared with unmodified IAPP, in words [7] | other results |
| --- | --- | --- | --- | --- | --- |
| ANFLV [pentapeptide corresponding to the segment 13-17 of IAPP, from a recent study] |  |  |  |  | Fibril formation of the 13-17 pentapeptide ([1]; several days of incubation, ref Rozniakowski et al., 2020): did not form fibrils |
| F15A: full-length IAPP with Phe15 replaced by alanine (KCNTATCATQRLANALVHSSNNFGAILSSTNVGSNTY; disulfide 2-7; ends not checked; UniProt P10997 34-70, looked up, variant F15A) | no fibrillar aggregates could be observed | delayed the appearance of ThT and ANS-positive signals, and β-sheet-rich assemblies | reduced IAPP toxicity |  | Increase of ThT fluorescence signal ([2]; 12.5 μM peptide): no increase of ThT fluorescence signal could be detected; Lag time of amyloid formation ([2]; 25 μM peptide, nonbinding surface 96-well plate, read every 10 min, lag time = T50 - 2/k, mean ± S.D. of at least six assays): 14.2 ± 2.2 h; Assemblies observed by AFM after 96 h incubation ([3]; 20 mM Tris-HCl pH 7.4, room temperature, no agitation, 96 h): only small aggregates; Assemblies observed by TEM after 168 h (7 days) incubation [3, 9]: amyloid fibrils could be observed; Maximum membrane leakage (calcein fluorescence, % of that with Triton X-100) [4]: 55%; Cell death in Live/Dead assay, in words (INS-1E cells [6]): decreased toxicity compared to unmodified IAPP |
| F15G: full-length IAPP with Gly at position Phe15 (KCNTATCATQRLANGLVHSSNNFGAILSSTNVGSNTY; disulfide 2-7; ends not checked; UniProt P10997 34-70, looked up, variant F15G) | no aggregates could be detected | delayed IAPP amyloid formation | significantly reduced IAPP cytotoxicity | destabilizes the propensity of IAPP to adopt an α-helix | Assemblies observed by TEM after 168 h (7 days) incubation [3, 9]: some partially dispersed amyloid fibrils |
| L16G: full-length IAPP with Gly at position Leu16 (KCNTATCATQRLANFGVHSSNNFGAILSSTNVGSNTY; disulfide 2-7; ends not checked; UniProt P10997 34-70, looked up, variant L16G) | Oligomer-like structures | delayed IAPP amyloid formation | significantly reduced IAPP cytotoxicity | destabilizes the propensity of IAPP to adopt an α-helix |  |
| LANFLV [IAPP12-17, short C-amidated peptide encompassing the 12–17 segment (LANFLV) of IAPP] |  |  |  |  | ThT and ANS fluorescence of the aggregates ([8]; 500 μM peptide incubated at 37 °C, diluted to 25 μM with 40 μM ThT or 25 μM ANS): ThT and ANS negative; Assemblies observed by TEM after 7 days incubation ([8]; 500 μM peptide, 20 mM acetate pH 6.5, 3% HFIP or 3% DMSO, 37 °C, constant agitation, longer fibrils with HFIP): laterally aligned rod-like fibrils; Secondary structure over incubation time (far-UV CD) ([8]; 500 μM peptide, 20 mM acetate pH 6.5, 3% HFIP, 37 °C, constant rotary agitation): mainly a random coil secondary structure after its solubilization, which evolves into β-sheet after prolonged incubation times; Solubility, in words ([8]; lyophilized/monomerized peptide, needed HFIP or DMSO before dilution in 20 mM acetate buffer pH 6.5): poor solubility |
| N14G: full-length IAPP with Asn14 substituted by Gly (KCNTATCATQRLAGFLVHSSNNFGAILSSTNVGSNTY; disulfide 2-7; ends not checked; UniProt P10997 34-70, looked up, variant N14G) | short, less defined, and twisted |  | significantly reduced IAPP cytotoxicity; also recorded: poorly toxic for pancreatic cells, even at 50 μM | destabilizes the propensity of IAPP to adopt an α-helix | Secondary conformation / conformational transition over incubation (far-UV CD), in words ([3]; 20 mM Tris-HCl pH 7.4, room temperature, fully quiescent, up to 7 days): delayed the random coil-to-β-sheet shift |
| rIAPP: rodent IAPP, includes three β-breaker prolines within the 20-29 region |  |  |  |  | Amyloidogenicity of rodent IAPP ([1]; ref Moriarty and Raleigh, 1999, Tomasello et al., 2014): non-amyloidogenic |
